The source of these data is patent US20190100587A1 (COVAGEN, published 2019).

Where two headings read alike, the source gives them in different places.

Assay [1] concerns the target T1, His-tagged human FcγRIIA (R&D, carrier-free formulation) (human, UniProt P12318 36-218, limits assumed).
T1 construct: also called CD32A
T1 sequence (looked up): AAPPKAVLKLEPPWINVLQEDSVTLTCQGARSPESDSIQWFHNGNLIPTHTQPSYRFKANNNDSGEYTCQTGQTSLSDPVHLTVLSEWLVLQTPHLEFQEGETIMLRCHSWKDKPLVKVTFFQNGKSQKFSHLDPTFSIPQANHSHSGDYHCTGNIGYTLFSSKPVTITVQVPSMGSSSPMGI
As to the kind of experiment: AlphaScreen competition assay; titrated antibody competes with biotinylated B21M IgG1 for His-tagged human FcγRIIA. (Alpha assays give light when donor and acceptor beads are brought close together.)

The target of assay [2] is T2, human recombinant FcγRI (Sino Biological) (human, UniProt P12314 16-288, limits assumed).
T2 construct: Amine-coupled to a BIAcore CM5 chip (1500 RU); also called CD64
Nature of the assay: SPR (BIAcore), FcγRI on chip, kinetic (koff/kon).

For assay [3], the target named is T3, human CD3 on CD3+ Jurkat cells (human).
T3 construct: whole, on cells
As to the kind of experiment: flow cytometry on CD3+ Jurkat cells, bound antibody detected with anti-human IgG-Alexa488. A general note: A flow cytometer gives signals particle by particle.

The target in assay [4] is T1, His-tagged human FcγRIIA (R&D, …). As to the kind of experiment: AlphaScreen competition assay; titrated antibody competes with biotinylated B21M IgG1 for His-tagged human FcγRIIA. The source holds these as a separate data set.
For assay [5], the target named is T4, His-tagged human FcγRIIIA (R&D, carrier-free formulation) (human, UniProt P08637 17-208).
T4 construct: also called CD16A
Nature of the assay: AlphaScreen competition assay; titrated antibody competes with biotinylated B21M IgG1 for His-tagged human FcγRIIIA.

Assay [6] addresses T2, human recombinant FcγRI (Sino …). As to the kind of experiment: SPR (BIAcore), FcγRI on chip, 1:1 Langmuir model. Background: Surface plasmon resonance follows binding to a sensor surface in real time, without labels.
Assay [7] addresses T5, His-tagged human FcγRIIB (R&D, carrier-free formulation) (human, UniProt P31994 46-217, limits assumed).
T5 construct: also called CD32B
T5 sequence (looked up): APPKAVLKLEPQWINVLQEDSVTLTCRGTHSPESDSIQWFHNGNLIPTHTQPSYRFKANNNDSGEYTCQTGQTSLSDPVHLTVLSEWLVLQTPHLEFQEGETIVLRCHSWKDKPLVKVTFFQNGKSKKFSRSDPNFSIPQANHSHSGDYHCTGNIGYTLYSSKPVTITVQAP
As to the kind of experiment: AlphaScreen competition assay; titrated antibody competes with biotinylated B21M IgG1 for His-tagged human FcγRIIB.

In assay [8] the target is T6, Human C1q (EMD Millipore) (human, UniProt P02745 23-245; P02746 28-253; P02747 29-245). Nature of the assay: SPR (BIAcore T100), antibody on CM5 chip, C1q injected, steady-state model.
The target of assay [9] is T2, human recombinant FcγRI (Sino …). Nature of the assay: SPR (BIAcore), FcγRI on chip, steady-state model.
Assay [10] concerns the target T7, His-tagged human FcγRI (R&D, carrier-free formulation) (human, UniProt P12314 16-288).
T7 construct: also called CD64; human FcγR1
Nature of the assay: AlphaScreen competition on His-tagged FcγRI; competitor biotinylated B21M LALA IgG1.

Assay [11] addresses T8, human recombinant FcγRIIIA (158F; R&D Systems) (human, UniProt P08637 17-208).
T8 construct: Amine-coupled to a BIAcore CM5 chip (1400 RU); also called CD16A
As to the kind of experiment: SPR (BIAcore), FcγRIIIA 158F on chip, steady-state model.

The target of assay [12] is T8, human recombinant FcγRIIIA (158F; R&D …). As to the kind of experiment: SPR (BIAcore), FcγRIIIA 158F on chip, 1:1 Langmuir model.
In assay [13] the target is T9, human recombinant FcRn (Sino Biological) (human, UniProt P55899 24-297; P61769 21-119).
T9 construct: Amine-coupled to a CM5 chip (600 RU); also called neonatal Fc receptor
As to the kind of experiment: SPR (BIAcore), FcRn on chip, pH 6.0, steady-state model.

Assay [14] addresses T4, His-tagged human FcγRIIIA (R&D, …). As to the kind of experiment: AlphaScreen competition assay; titrated antibody competes with biotinylated B21M IgG1 for His-tagged human FcγRIIIA. The source holds these as a separate data set.
Assay [15] has as its target T8, human recombinant FcγRIIIA (158F; R&D …). As to the kind of experiment: SPR (BIAcore), FcγRIIIA 158F on chip, kinetic (koff/kon).
Assay [16] has the same target. Nature of the assay: SPR (BIAcore), human FcγRIIIA (158F) amine-coupled on a CM5 chip, antibody injected.
The target of assay [17] is T6, Human C1q (EMD Millipore). Nature of the assay: SPR (BIAcore T100), antibody amine-coupled on a CM5 chip, human C1q injected.

T8 sequence (P08637 17-208 limits assumed): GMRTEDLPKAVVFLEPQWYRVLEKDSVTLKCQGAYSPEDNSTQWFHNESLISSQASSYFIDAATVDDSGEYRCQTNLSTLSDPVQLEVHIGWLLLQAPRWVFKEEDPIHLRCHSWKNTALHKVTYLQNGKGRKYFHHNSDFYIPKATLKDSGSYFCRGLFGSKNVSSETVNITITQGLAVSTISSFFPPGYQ
T7 sequence (P12314 16-288 limits assumed): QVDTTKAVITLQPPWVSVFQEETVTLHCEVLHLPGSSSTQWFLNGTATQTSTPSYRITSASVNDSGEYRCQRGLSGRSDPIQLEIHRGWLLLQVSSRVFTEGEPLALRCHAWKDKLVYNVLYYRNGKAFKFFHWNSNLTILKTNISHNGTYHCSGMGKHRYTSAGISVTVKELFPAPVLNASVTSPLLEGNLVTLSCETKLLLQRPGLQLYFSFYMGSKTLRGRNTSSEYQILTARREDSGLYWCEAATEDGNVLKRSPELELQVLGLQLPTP
T2 sequence (P12314 16-288 limits assumed): as above
T6 sequence (P02745 23-245 limits assumed, chain 1 of 3): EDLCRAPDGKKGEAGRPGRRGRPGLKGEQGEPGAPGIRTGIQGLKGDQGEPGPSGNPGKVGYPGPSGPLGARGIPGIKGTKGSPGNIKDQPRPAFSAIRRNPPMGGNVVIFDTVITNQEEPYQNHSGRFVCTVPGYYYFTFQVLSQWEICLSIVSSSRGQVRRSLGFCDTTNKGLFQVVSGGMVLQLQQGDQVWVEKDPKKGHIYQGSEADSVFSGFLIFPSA
T6 sequence (P02746 28-253 limits assumed, chain 2 of 3): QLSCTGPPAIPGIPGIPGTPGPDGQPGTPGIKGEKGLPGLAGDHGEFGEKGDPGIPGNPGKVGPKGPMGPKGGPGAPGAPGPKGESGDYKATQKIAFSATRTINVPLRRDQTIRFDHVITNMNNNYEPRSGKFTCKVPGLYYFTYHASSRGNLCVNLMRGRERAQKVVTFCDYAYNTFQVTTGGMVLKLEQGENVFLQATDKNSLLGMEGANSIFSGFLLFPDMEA
T6 sequence (P02747 29-245 limits assumed, chain 3 of 3): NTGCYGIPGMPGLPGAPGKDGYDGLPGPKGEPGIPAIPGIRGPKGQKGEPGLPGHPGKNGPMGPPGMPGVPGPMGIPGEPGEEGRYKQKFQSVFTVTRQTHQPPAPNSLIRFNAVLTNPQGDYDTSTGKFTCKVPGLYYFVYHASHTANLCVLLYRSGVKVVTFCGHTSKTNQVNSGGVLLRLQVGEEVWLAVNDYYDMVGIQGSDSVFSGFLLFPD
T4 sequence (P08637 17-208 limits assumed): as the sequence (P08637 17-208 limits assumed) above
T3 sequence (P07766 23-207, chain 1 of 4): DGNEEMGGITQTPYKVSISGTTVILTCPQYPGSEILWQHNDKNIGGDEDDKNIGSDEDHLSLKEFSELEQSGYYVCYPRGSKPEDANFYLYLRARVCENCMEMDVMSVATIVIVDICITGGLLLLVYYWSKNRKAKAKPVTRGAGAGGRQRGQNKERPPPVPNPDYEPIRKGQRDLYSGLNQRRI
T3 sequence (P09693 23-182, chain 2 of 4, further chain): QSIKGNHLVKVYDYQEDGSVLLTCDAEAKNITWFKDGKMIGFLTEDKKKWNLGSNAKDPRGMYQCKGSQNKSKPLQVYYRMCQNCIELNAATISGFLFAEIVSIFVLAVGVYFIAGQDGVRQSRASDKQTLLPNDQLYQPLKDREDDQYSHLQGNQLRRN
T3 sequence (P04234 22-171, chain 3 of 4, further chain): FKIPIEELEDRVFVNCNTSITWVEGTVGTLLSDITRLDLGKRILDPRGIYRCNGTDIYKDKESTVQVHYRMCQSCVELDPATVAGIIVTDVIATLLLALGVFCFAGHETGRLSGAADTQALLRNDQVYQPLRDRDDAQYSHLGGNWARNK
T3 sequence (P20963 22-164, chain 4 of 4, further chain): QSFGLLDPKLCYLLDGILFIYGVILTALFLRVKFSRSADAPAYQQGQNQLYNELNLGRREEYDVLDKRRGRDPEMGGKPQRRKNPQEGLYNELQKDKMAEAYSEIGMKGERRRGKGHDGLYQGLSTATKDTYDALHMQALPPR
T9 sequence (P55899 24-297 limits assumed, chain 1 of 2): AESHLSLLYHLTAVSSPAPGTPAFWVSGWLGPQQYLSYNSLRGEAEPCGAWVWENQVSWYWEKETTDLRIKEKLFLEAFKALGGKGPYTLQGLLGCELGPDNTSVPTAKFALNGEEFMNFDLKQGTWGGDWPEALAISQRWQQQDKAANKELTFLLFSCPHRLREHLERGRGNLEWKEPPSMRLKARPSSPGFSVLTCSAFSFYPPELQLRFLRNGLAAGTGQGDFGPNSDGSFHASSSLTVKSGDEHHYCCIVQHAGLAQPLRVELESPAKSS
T9 sequence (P61769 21-119 limits assumed, chain 2 of 2): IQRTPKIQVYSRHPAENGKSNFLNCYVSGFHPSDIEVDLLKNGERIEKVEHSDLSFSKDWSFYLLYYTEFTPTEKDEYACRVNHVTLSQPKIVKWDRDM

B1: mAb1 IgG1 (antibody)
heavy: not shown
light: QVVLTQSPAIMSAFPGEKVTMTCSASSSVSYMNWYQQKSGTSPKRWIYDSSKLASGVPARFSGSGSGTSYSLTISSMETEDAATYYCQQWSRNPPTFGGGTKLQITRTVAAPSVFIFPPSDEQLKSGTASVVCLLNNFYPREAKVQWKVDNALQSGNSQESVTEQDSKDSTYSLSSTLTLSKADYEKHKVYACEVTHQGLSSPVTKSFNRGEC
notes: Human IgG1 antibody specific to human CD3, wild-type Fc; also called unmodified IgG; unmutated mAb1 IgG1
Broadly, the Kd is the constant that tells how readily two partners part at equilibrium. What is called EC50 (read off the curve) is the concentration giving half of the maximal effect. The koff is a measure of how fast the partners let go of each other. As a reminder, the kon is the second-order rate constant of association. The term IC50 denotes the concentration needed to halve the response being measured. Take B1: the “IC50 (read off the curve)” value is around 200 nM in [1]; around 200 nM in [4]; around 40 nM in [5]; around 200 nM in [7]; around 40 nM in [14]. In addition, the Kd was determined as 112 nM in [2]; 30 nM in [8]; 243 nM in assay [9]; 956 nM in assay [11]; 470 nM in [13]; 674 nM in [15]. For the same molecule, the “EC50 (read off the curve)” value in assay [3] is around 0.1 nM. Besides, the koff came to 0.00729 s⁻¹ in assay [6] and 0.0214 s⁻¹ in assay [12]. The values for the kon in [6] and in assay [12] were 64900 M⁻¹ s⁻¹ and 31800 M⁻¹ s⁻¹, respectively. In [10], this molecule gave a half-inhibitory concentration (IC50) of 2.27 nM. In assay [10], the “IC50 relative to IgG1” value was 1 fold.

B2: mAb1 DANAPA IgG1 (antibody)
heavy: QVQLQQSGAELARPGASVKMSCKASGYTFTRSTMHWVKQRPGQGLEWIGYINPSSAYTNYNQKFKDKATLTADKSSSTAYMQLSSLTSEDSAVYYCASPQVHYDYNGFPYWGQGTLVTVSAASTKGPSVFPLAPSSKSTSGGTAALGCLVKDYFPEPVTVSWNSGALTSGVHTFPAVLQSSGLYSLSSVVTVPSSSLGTQTYICNVNHKPSNTKVDKKVEPKSCDKTHTCPPCPAPELLGGPSVFLFPPKPKDTLMISRTPEVTCVVVAVSHEDPEVKFNWYVDGVEVHNAKTKPREEQYASTYRVVSVLTVLHQDWLNGKEYKCKVSNKALAAPIEKTISKAKGQPREPQVYTLPPSREEMTKNQVSLTCLVKGFYPSDIAVEWESNGQPENNYKTTPPVLDSDGSFFLYSKLTVDKSRWQQGNVFSCSVMHEALHNHYTQKSLSLSPGK
light: B1 light
notes: mAb1 with Fc mutations D265A, N297A, P329A (EU numbering); also called DANAPA Fc mutated mAb1
On to B2, for which the “EC50 (read off the curve)” value in assay [3] was around 0.08 nM. Besides, in assay [10], the IC50 was above 1000 nM and the “IC50 relative to IgG1” value is above 400 fold. The binding result in [16] was “no binding (tested: 2000 nM)”. Also, in assay [17], the binding result is given as “no binding (tested: 200 nM C1q)”. Besides, the Kd in assay [13] amounted to 500 nM.
